According to publication PMC6821365:
Positions count from the first letter of the chain named.

Key:
Test in all cases: ITC
yedK C2A = molecular target: T1, yedK C2A (Escherichia coli (gene from BL21 …, UniProt P76318 2-222, C2A))
T1 sequence: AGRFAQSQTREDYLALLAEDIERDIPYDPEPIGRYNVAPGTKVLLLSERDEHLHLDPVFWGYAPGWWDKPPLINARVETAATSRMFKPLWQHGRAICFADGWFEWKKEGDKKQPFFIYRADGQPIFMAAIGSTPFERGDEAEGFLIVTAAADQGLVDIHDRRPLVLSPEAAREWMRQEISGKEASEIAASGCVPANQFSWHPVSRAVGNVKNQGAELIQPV

yedK E105A = molecular target: T2, yedK E105A (Escherichia coli (gene from BL21 …, UniProt P76318 2-222, E105A))
T2 sequence: T1 sequence with A1C, E104A

yedK R77A = molecular target: T3, yedK R77A (Escherichia coli (gene from BL21 …, UniProt P76318 2-222, R77A))
T3 sequence: T1 sequence with A1C, R76A

yedK T149A = molecular target: T4, yedK T149A (Escherichia coli (gene from BL21 …, UniProt P76318 2-222, T149A))
T4 sequence: T1 sequence with A1C, T148A

yedK WT = molecular target: T5, yedK WT (Escherichia coli (gene from BL21 …, UniProt P76318 2-222))
T5 sequence: T1 sequence with A1C

yedK R162A = molecular target: T6, yedK R162A (Escherichia coli (gene from BL21 …, UniProt P76318 2-222, R162A))
T6 sequence: T1 sequence with A1C, R161A

yedK K113A = molecular target: T7, yedK K113A (Escherichia coli (gene from BL21 …, UniProt P76318 2-222, K113A))
T7 sequence: T1 sequence with A1C, K112A

yedK N75A = molecular target: T8, yedK N75A (Escherichia coli (gene from BL21 …, UniProt P76318 2-222, N75A))
T8 sequence: T1 sequence with A1C, N74A

Binder: CGGTCGATTC (ssDNA) [ssDNA]
- Kd (yedK C2A): 7900 nM
- Kd (yedK E105A): 120 nM
- binding result (yedK R77A): no binding
- binding result (yedK T149A): no binding
- Kd (yedK WT): 2200 nM
- binding result (yedK R162A): no binding
- Kd (yedK K113A): 2100 nM
- Kd (yedK N75A): 37900 nM
